From US20090068207A1, “Compositions Containing Beta 2-Glycoprotein I-Derived Peptides for the Prevention and/or Treatment of Vascular Disease” (Vascular Biogenics Ltd., priority 2005, published 2009)

Key:
[1] = tested on: LDL-RD mice; test: Aortic sinus lesion area after nasal tolerance induction, Western diet; format: in vivo; conditions: END, intranasal 10 μg/mouse every other day for 5 days, then Western diet, mean ± S.E
Experimental: Nasal Tolerance: Nasal tolerance was induced by intranasal administration of oxidized LDL, β2GPI, β2GPI-derived peptides or HSP65, in a total volume of 10 μl PBS. Intranasal administration was performed on mildly sedated mice (12-16 weeks old), each mouse receiving 3 doses of antigen per dose, in the indicated concentrations, every other day. Atherogenesis was induced by 5 weeks of a Western diet initiated on the day following the last intranasal administration, or assessed (in Apo E KO mice) after 8 weeks on a chow diet. Controls received equal amounts of BSA and/or PBS, as indicated, in an identical regimen. Plasma was obtained for assessment of cholesterol and triglyceride levels from all mice, and the mice were sacrificed for evaluation of atherosclerosis, as described hereinbelow, after 5 weeks Western diet, or (in Apo E KO mice) after 8 weeks on a chow diet.
Assessment of Atherosclerosis: Quantification of atherosclerotic fatty streak lesions was done by calculating the lesion size in the aortic sinus as previously described (16) and by calculating the lesion size in the aorta. Briefly, after perfusion with saline Tris EDTA, the heart and the aorta were removed from the animals and the peripheral fat cleaned carefully. The upper section of the heart was embedded in OCT medium (10.24% w/w polyvinyl alcohol; 4.26% w/w polyethylene glycol; 85.50% w/w nonreactive ingredients) and frozen. Every other section (10 μm thick) throughout the aortic sinus (400 μm) was taken for analysis. The distal portion of the aortic sinus was recognized by the three valve cusps that are the junctions of the aorta to the heart. Sections were evaluated for fatty streak lesions after processing and staining with oil-red O, according to Paigen et al (Atherosclerosis, 1987; 68:231-40). Lesion areas per section were scored on a grid (17) by an observer counting unidentified, numbered specimens. The aorta was dissected from the heart and surrounding adventitious tissue was removed. Fixation of the aorta and Sudan staining of the vessels were performed as previously described (21).
Mice were bled prior to feeding (Time 0) and at the conclusion of the experiment (End) for determination of lipid profile. Atherosclerosis was assessed in heart and aorta as described above, 8 weeks after the last feeding. Mice were weighed every 2 weeks during the experiment. All mice were fed water ad libitum and a normal chow-diet containing 4.5% fat by weight (0.02% cholesterol), up to the final antigen exposure, and then a “Western” diet until sacrifice.
Thus, nasal exposure to a low dose and an exceedingly low dose of recombinant human HSP 65 were compared for their effectiveness in suppressing atherogenesis in LDL-RD mice. 58 male 12-16 week old LDL-RD mice were divided into 4 groups.

[2] = tested on: LDL-RD mice; test: Aortic sinus lesion area after intraperitoneal immunization with incomplete Freund's adjuvant; format: in vivo; conditions: End, intraperitoneal with incomplete Freund's adjuvant, head 100 μg, mean ± S.E
Experimental: Intraperitoneal immunization with human β2GPI-derived peptides: human β2GPI-derived peptides were dissolved in PBS and mixed with equal volumes of Freund's incomplete adjuvant. […] One week following the last immunization, the diet was switched from chow to atherogenic “Western” diet for five weeks, and then the mice were sacrificed.
Assessment of Atherosclerosis: Quantification of atherosclerotic fatty streak lesions was done by calculating the lesion size in the aortic sinus as previously described (16) and by calculating the lesion size in the aorta. Briefly, after perfusion with saline Tris EDTA, the heart and the aorta were removed from the animals and the peripheral fat cleaned carefully. The upper section of the heart was embedded in OCT medium (10.24% w/w polyvinyl alcohol; 4.26% w/w polyethylene glycol; 85.50% w/w nonreactive ingredients) and frozen. Every other section (10 μm thick) throughout the aortic sinus (400 μm) was taken for analysis. The distal portion of the aortic sinus was recognized by the three valve cusps that are the junctions of the aorta to the heart. […] Lesion areas per section were scored on a grid (17) by an observer counting unidentified, numbered specimens. The aorta was dissected from the heart and surrounding adventitious tissue was removed. Fixation of the aorta and Sudan staining of the vessels were performed as previously described (21). […]

B1: Human β2 GPI: human beta2-glycoprotein I (SEQ ID NO: 10) purified from serum (protein)
chain: MISPVLILFSSFLCHVAIAGRTCPKPDDLPFSTVVPLKTFYEPGEEITYSCKPGYVSRGGMRKFICPLTGLWPINTLKCTPRVCPFAGILENGAVRYTTFEYPNTISFSCNTGFYLNGADSAKCTEEGKWSPELPVCAPIICPPPSIPTFATLRVYKPSAGNNSLYRDTAVFECLPQHAMFGNDTITCTTHGNWTKLPECREVKCPFPSRPDNGFVNYPAKPTLYYKDKATFGCHDGYSLDGPEEIECTKLGNWSAMPSCKASCKLPVKKATVVYQGERVKIQEKFKNGMLHGDKVSFFCKNKEKKCSYTEDAQCIDGTIEVPKCFKEHSSLAFWKTDASDVKPC
Q: With B1 as the molecule, how does the “Aortic sinus lesion (μm^2)” value [1] read?
A: Its value is 46250 ± 4486 μm^2.

Q: What about the “Aortic sinus lesion (μm^2)” value [2] of the same molecule?
A: The value was 36782 ± 5962 μm^2.
